From patent US20100003258A1 (AVEO PHARMACEUTICALS, published 2010)

Assays:
[1] = target: T1, recombinant human FGFR3 IIIc Fc fusion protein (human, UniProt P22607 23-375); assay: SPR (Biacore T100), antibody captured on anti-mouse Ig, rhFGFR3 IIIc Fc as analyte, 37 C
T1 construct: Bought reagent; also called rhFGFR3 IIIc Fc; not shown: Fc fragment (removable by Factor Xa)
T1 sequence (looked up): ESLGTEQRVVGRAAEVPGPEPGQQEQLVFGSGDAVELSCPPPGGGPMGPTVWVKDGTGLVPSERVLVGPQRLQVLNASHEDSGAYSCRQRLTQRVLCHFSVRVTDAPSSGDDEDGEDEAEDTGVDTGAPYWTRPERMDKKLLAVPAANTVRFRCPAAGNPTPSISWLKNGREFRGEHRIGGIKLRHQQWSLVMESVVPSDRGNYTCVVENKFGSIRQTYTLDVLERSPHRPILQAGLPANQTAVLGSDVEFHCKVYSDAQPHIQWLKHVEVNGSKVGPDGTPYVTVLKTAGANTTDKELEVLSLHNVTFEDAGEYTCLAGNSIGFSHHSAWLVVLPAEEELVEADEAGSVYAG
Procedure: (§1) The binding affinities and kinetics of interaction of the monoclonal antibodies (15D8, 27H2, 2G4, and 4E7(7D12)) produced in Example 1 against recombinant human FGFR3 (IIIb and IIIc isoforms) Fc fusion protein (rhFGFR3 IIIb Fc or rhFGFR3 IIIc Fc) were measured by surface plasmon resonance using a Biacore™ T100 (Biacore) instrument.
(§2) Rabbit anti-mouse immunoglobulins (Biacore, Catalog No. BR-1005-14) were immobilized on carboxymethylated dextran CM4 sensor chips (Biacore, Catalog No. BR-1005-34) by amine coupling (Biacore, Catalog No. BR-1000-50) using a standard coupling protocol according to manufacturer's instructions.
(§3) The antibodies were captured in an individual flow cell at a flow rate of 10 μl/min. Injection time was varied for each antibody to yield approximately 40-50 RU of antibody captured for each cycle. Buffer or rhFGFR3 IIIb Fc (R&D Systems, Catalog No. 1264-FR-050) or rhFGFR3 IIIc Fc (R&D Systems, Catalog No. 766-FR-050) diluted in running buffer was injected sequentially over a reference surface (no antibody captured) and the active surface (antibody to be tested) for 300 sec at 60 μl/min. The dissociation phase was monitored for 30 minutes. The surface was then regenerated with two 60-seconds injection of 10 mM Glycine-HCl, pH 1.7 (made from Glycine pH 1.5 (Biacore, Catalog No. BR-1003-54) and pH 2.0 (Biacore, Catalog No. BR-1003-55)) at a flow rate of 60 μl/min. rhFGFR3 Fc concentrations tested were 0.62 nM to 40 nM.

[2] = target: T1, recombinant human FGFR3 IIIc Fc fusion …; assay: SPR (Biacore T100), antibody captured on anti-mouse Ig, rhFGFR3 IIIc Fc as analyte, 25 C
Procedure: as §1, §2, §3

[3] = target: T1, recombinant human FGFR3 IIIc Fc fusion …; assay: kinetic exclusion assay (KinExA), antibody and rhFGFR3 IIIc Fc in solution, room temperature
Procedure: The binding affinities of monoclonal 15D8, chimeric 15D8, and humanized 15D8 antibodies for recombinant human FGFR3 IIIc Fc fusion protein was measured using a kinetic exclusion assay, KinExA® technology (Sapidyne Instruments, Inc.). First, beads were prepared for the purpose of detecting anti-FGFR3 antibody that is unbound to FGFR3 IIIc Fc. This was done by adding 1 ml recombinant human FGFR3IIIc Fc (R&D Systems, Inc.) 10 ug/ml in PBS to 200 mg polymethyl methacrylate (PMMA) hard beads. The suspension was mixed and rotated for two hours at room temperature. Next, the mixture was centrifuged and supernatant was discarded. The bead pellet was rinsed once with 1 ml BSA 10 mg/ml in PBS by incubation for 1 hour at room temperature with rotation. The beads were resuspended in 27 ml PBS with 0.02% NaN₃. Next, a fixed concentration of anti-FGFR3 antibody (0.5 nM) was incubated in solution with a series of FGFR3 IIIc Fc concentrations (started with 50 nM (in PBS BSA (1 mg/ml)) and serially diluted 1:2 in PBS BSA(1 mg/ml) to obtain 50 to 0.0122 nM FGFR3 III Fc) at room temperature for at least 4 hours to allow equilibrium to be reached. By measuring the amount of anti-FGFR3 antibody that is not bound to FGFR3 IIIc Fc, the KD was determined. Unbound anti-FGFR3 antibody was detected by allowing the anti-FGFR3 antibody/FGFR3 IIIc Fc solution to flow through the FGFR3 IIIc Fc PMMA beads. The anti-FGFR3 antibody captured by these beads was then detected with Cy5-conjugated anti-human secondary antibody 0.3 ug/ml (Jackson ImmunoResearch) or Cy5-conjugated anti-mouse secondary antibody (Jackson ImmunoResearch) 0.5 ug/ml in PBS BSA 1 mg/ml. The detected signal for captured anti-FGFR3 antibody is directly proportional to the remaining free binding sites, thus allowing KD determination. The experiments were repeated, varying the concentrations of anti-FGFR3 antibody or FGFR3 III Fc used in solution, and the KD was calculated with the KinExA® software using n-curve analysis.

[4] = target: T2, recombinant human FGFR3 IIIb Fc fusion protein (human, UniProt P22607-2 23-377, limits assumed); assay: SPR (Biacore T100), antibody captured on anti-mouse Ig, rhFGFR3 IIIb Fc as analyte, 37 C
T2 construct: Bought reagent; the IIIb splice isoform is meant; also called rhFGFR3 IIIb Fc; hFGFR3 IIIb; not shown: Fc fragment (removable by Factor Xa, detected with anti-human IgG)
T2 sequence (looked up): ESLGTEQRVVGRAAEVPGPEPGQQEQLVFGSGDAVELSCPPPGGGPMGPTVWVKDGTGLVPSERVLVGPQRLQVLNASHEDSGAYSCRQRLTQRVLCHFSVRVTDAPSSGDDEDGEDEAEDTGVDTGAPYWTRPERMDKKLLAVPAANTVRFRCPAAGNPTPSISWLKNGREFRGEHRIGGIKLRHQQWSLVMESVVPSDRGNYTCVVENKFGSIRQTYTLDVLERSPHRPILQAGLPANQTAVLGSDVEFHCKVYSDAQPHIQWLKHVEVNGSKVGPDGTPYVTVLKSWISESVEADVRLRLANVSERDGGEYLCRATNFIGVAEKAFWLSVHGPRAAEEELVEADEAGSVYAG
Procedure: as §1, §2, §3

B1: anti-FGFR3 monoclonal antibody 15D8 (antibody, mouse IgG1, kappa)
heavy: EIQLQQSGPELVKPGASVKVSCKASGYAFTSYNMYWVKQSHGKSLEWIGYIDPYNGGTSYNQKFKGKATLTVDKSSSTAYMHLNSLTSEDSAVYYCAREGGNYEAWFAYWGQGTLVTVSAAKTTPPSVYPLAPGSAAQTNSMVTLGCLVKGYFPEPVTVTWNSGSLSSGVHTFPAVLQSDLYTLSSSVTVPSSTWPSETVTCNVAHPASSTKVDKKIVPRDCGCKPCICTVPEVSSVFIFPPKPKDVLTITLTPKVTCVVVDISKDDPEVQFSWFVDDVEVHTAQTQPREEQFNSTFRSVSELPIMHQDWLNGKEFKCRVNSAAFPAPIEKTISKTKGRPKAPQVYTIPPPKEQMAKDKVSLTCMITDFFPEDITVEWQWNGQPAENYKNTQPIMDTDGSYFVYSKLNVQKSNWEAGNTFTCSVLHEGLHNHHTEKSLSHSPGK
light: QIVLTQSPALMSASPGEKVTMTCSASSSVSYMYWYQQKPRSSPKPWIYLTSYLASGVPARFSGSGSGTSYSLTISSMEAEDAATYYCQQWSSYPLTFGAGTKLELKRADAAPTVSIFPPSSEQLTSGGASVVCFLNNFYPKDINVKWKIDGSERQNGVLNSWTDQDSKDSTYSMSSTLTLTKDEYERHNSYTCEATHKTSTSPIVKSFNRNEC
notes: also called 15D8 IgG1; murine antibody 15D8
Kd [1]: 1.8 nM
koff [1]: 0.00018 s⁻¹
kon [1]: 120000 M⁻¹ s⁻¹
Kd [2]: 2.2 nM
koff [2]: 0.0002 s⁻¹
kon [2]: 93000 M⁻¹ s⁻¹
Kd [3]: 0.0806 nM
Kd [4]: 3.2 nM
koff [4]: 0.0003 s⁻¹
kon [4]: 94000 M⁻¹ s⁻¹
